Source: IntAct's records for PubMed 12374762

B1: Aryl-hydrocarbon-interacting protein-like 1 (Homo sapiens), Q9NZN9 (parent)
chain: MDAALLLNVEGVKKTILHGGTGELPNFITGSRVIFHFRTMKCDEERTVIDDSRQVGQPMHIIIGNMFKLEVWEILLTSMRVHEVAEFWCDTIHTGVYPILSRSLRQMAQGKDPTEWHVHTCGLANMFAYHTLGYEDLDELQKEPQPLVFVIELLQVDAPSDYQRETWNLSNHEKMKAVPVLHGEGNRLFKLGRYEEASSKYQEAIICLRNLQTKEKPWEVQWLKLEKMINTLILNYCQCLLKKEEYYEVLEHTSDILRHHPGIVKAYYVRARAHAEVWNEAEAKADLQKVLELEPSMQKAVRRELRLLENRMAEKQEEERLRCRNMLSQGATQPPAEPPTEPPAQSSTEPPAEPPTAPSAELSAGPPAEPATEPPPSPGHSLQH

Variants of: B1
Details: with nub1_human NUB1, Q9Y5A7
Sequence of nub1_human NUB1, Q9Y5A7 (Q9Y5A7 whole entry): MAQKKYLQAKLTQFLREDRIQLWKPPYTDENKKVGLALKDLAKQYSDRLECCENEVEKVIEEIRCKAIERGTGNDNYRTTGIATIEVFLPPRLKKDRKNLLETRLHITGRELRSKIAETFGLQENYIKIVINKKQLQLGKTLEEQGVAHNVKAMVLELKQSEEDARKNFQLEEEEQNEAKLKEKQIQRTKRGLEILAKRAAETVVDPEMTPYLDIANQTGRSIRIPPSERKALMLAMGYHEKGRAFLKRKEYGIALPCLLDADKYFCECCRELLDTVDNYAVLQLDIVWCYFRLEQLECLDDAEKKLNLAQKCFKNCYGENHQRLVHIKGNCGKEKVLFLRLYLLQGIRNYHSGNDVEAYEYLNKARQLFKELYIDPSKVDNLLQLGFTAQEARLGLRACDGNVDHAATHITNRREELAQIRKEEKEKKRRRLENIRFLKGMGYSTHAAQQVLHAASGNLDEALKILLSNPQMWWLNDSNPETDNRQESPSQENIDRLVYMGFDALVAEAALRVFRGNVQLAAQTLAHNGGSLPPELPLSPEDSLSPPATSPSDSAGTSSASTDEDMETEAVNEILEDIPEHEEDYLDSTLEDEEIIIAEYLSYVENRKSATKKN

Row | Variant | effect of a mutation on the interaction
1 | M79T | decreasing interaction
2 | R53W | decreasing interaction
3 | V96I | decreasing interaction

Next, values leading:

Row | effect of a mutation on the interaction | Variant
4 | decreasing interaction | G262S
5 | decreasing interaction | R302L
